Among the data in PMC5806882, “Structural and biochemical characterization of the biuret hydrolase (BiuH) from the cyanuric acid catabolism pathway of Rhizobium leguminasorum bv. viciae 3841” (PLoS ONE, 2018) are Km, kcat and kcat/Km values, retold here.

In general, Km refers to the substrate concentration at which the rate is half of its maximum. In general, kcat refers to the number of substrate molecules converted per active site and unit of time at saturation. One may read the kcat/Km as the turnover number divided by the Michaelis constant.

Data set [1] relates to T1, NC(=O)NC(N)=O.
T1 construct: wild type, N-terminal 6xHis-tag
Kind of data set: GDH-coupled steady-state kinetics (KM). Particulars: active site. Type of data set: biochemical, Rhizobium johnstonii.

Data set [2] has as its system NC(=O)NC(N)=O. The data set can be described thus: GDH-coupled steady-state kinetics (KM). Particulars: active site. Type of data set: biochemical, Rhizobium johnstonii.

Chain of biuret hydrolase (BiuH) (Rhizobium johnstonii 3841; F41W) (chain, as listed by the source F41W): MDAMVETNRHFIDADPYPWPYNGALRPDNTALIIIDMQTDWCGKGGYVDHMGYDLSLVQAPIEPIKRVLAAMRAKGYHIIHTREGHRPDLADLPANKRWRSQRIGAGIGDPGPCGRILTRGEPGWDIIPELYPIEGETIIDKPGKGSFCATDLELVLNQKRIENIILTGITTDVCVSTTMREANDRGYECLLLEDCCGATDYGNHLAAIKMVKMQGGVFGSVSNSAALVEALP
Chain of biuret hydrolase (BiuH) (Rhizobium johnstonii 3841; Q215N) (chain, as listed by the source Q215N): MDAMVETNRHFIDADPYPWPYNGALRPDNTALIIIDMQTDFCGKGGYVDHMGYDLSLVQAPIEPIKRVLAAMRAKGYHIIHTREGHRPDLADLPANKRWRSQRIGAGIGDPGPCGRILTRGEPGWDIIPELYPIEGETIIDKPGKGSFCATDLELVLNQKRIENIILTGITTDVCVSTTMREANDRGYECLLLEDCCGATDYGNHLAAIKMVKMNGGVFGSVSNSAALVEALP
Chain of biuret hydrolase (BiuH) (Rhizobium johnstonii 3841; K142R) (chain, as listed by the source K142R): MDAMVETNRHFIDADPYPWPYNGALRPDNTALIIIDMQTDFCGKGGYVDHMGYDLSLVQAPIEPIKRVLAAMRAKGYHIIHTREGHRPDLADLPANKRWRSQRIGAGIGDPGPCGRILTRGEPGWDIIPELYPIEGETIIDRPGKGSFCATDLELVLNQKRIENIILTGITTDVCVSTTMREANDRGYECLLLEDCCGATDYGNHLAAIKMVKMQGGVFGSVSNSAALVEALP
Chain of biuret hydrolase (BiuH) (Rhizobium johnstonii 3841) (chain, as listed by the source): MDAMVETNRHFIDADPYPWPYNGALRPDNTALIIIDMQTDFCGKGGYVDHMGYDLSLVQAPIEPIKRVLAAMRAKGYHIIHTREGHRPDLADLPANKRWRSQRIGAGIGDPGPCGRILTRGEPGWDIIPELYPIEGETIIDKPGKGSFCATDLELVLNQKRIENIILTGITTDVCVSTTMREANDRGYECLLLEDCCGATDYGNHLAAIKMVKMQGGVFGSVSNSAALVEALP

For “biuret hydrolase (BiuH) (Rhizobium johnstonii 3841)”, in data set [1], the Km stood at 79 ± 7 µM, the kcat came to 11.9 ± 0.3 s⁻¹ and the kcat/Km was found to be 150000 M⁻¹ s⁻¹.

As to “biuret hydrolase (BiuH) (Rhizobium johnstonii 3841; K142R)”, in data set [2], the Km was found to be 139 ± 8 µM, the catalytic constant (kcat) amounted to 0.07 ± 0.001 s⁻¹ and the kcat/Km was 504 M⁻¹ s⁻¹.

Consider “biuret hydrolase (BiuH) (Rhizobium johnstonii 3841; F41W)”, for which, in data set [2], the Km amounted to 127 ± 8 µM, the kcat worked out at 0.26 ± 0.003 s⁻¹ and the kcat/Km was found to be 2050 M⁻¹ s⁻¹.

Turning to “biuret hydrolase (BiuH) (Rhizobium johnstonii 3841; Q215N)”, in data set [2], the Michaelis-Menten constant (Km) was determined as 48 ± 2 µM, the kcat came out at 0.19 ± 0.002 s⁻¹ and the kcat/Km was found to be 3960 M⁻¹ s⁻¹.
